Test results as given in the Human Domainome abundance scans (Beltran et al. 2025).
± gives the uncertainty stated by the source.

Assay: abundance fitness (aPCA) (normalised: wild type 0, dead -1); higher = more abundant; growth selection in yeast, the domain comes from the species named
Settings: Homo sapiens

Row | Substance | abundance fitness
1 | NEDD4-like E3 ubiquitin-protein ligase WWP2 R476N, O00308 | -0.186 ± 0.049
2 | NEDD4-like E3 ubiquitin-protein ligase WWP2 R476P, O00308 | -0.188 ± 0.07
3 | NEDD4-like E3 ubiquitin-protein ligase WWP2 R476Q, O00308 | -0.406 ± 0.074
4 | NEDD4-like E3 ubiquitin-protein ligase WWP2 R476S, O00308 | -0.271 ± 0.052
5 | NEDD4-like E3 ubiquitin-protein ligase WWP2 R476T, O00308 | -0.075 ± 0.049
6 | NEDD4-like E3 ubiquitin-protein ligase WWP2 R476W, O00308 | -0.294 ± 0.045
7 | NEDD4-like E3 ubiquitin-protein ligase WWP2 R476Y, O00308 | -0.369 ± 0.05
8 | NEDD4-like E3 ubiquitin-protein ligase WWP2 R493A, O00308 | -0.237 ± 0.12
9 | NEDD4-like E3 ubiquitin-protein ligase WWP2 R493C, O00308 | -0.399 ± 0.12
10 | NEDD4-like E3 ubiquitin-protein ligase WWP2 R493E, O00308 | -0.058 ± 0.063
11 | NEDD4-like E3 ubiquitin-protein ligase WWP2 R493F, O00308 | 0.299 ± 0.12
12 | NEDD4-like E3 ubiquitin-protein ligase WWP2 R493G, O00308 | 0.041 ± 0.064
13 | NEDD4-like E3 ubiquitin-protein ligase WWP2 R493H, O00308 | 0.065 ± 0.087
14 | NEDD4-like E3 ubiquitin-protein ligase WWP2 R493I, O00308 | -0.502 ± 0.18
15 | NEDD4-like E3 ubiquitin-protein ligase WWP2 R493K, O00308 | -0.022 ± 0.089
16 | NEDD4-like E3 ubiquitin-protein ligase WWP2 R493L, O00308 | -0.088 ± 0.1
17 | NEDD4-like E3 ubiquitin-protein ligase WWP2 R493M, O00308 | -0.083 ± 0.082
18 | NEDD4-like E3 ubiquitin-protein ligase WWP2 R493N, O00308 | -0.666 ± 0.28
19 | NEDD4-like E3 ubiquitin-protein ligase WWP2 R493P, O00308 | -0.006 ± 0.063
20 | NEDD4-like E3 ubiquitin-protein ligase WWP2 R493Q, O00308 | 0.132 ± 0.11
21 | NEDD4-like E3 ubiquitin-protein ligase WWP2 R493S, O00308 | -0.201 ± 0.079
22 | NEDD4-like E3 ubiquitin-protein ligase WWP2 R493T, O00308 | 0.002 ± 0.056

Row | Substance | abundance fitness
23 | NEDD4-like E3 ubiquitin-protein ligase WWP2 R493V, O00308 | -0.069 ± 0.037
24 | NEDD4-like E3 ubiquitin-protein ligase WWP2 R493W, O00308 | -0.013 ± 0.071
25 | NEDD4-like E3 ubiquitin-protein ligase WWP2 R493Y, O00308 | -0.055 ± 0.055
26 | NEDD4-like E3 ubiquitin-protein ligase WWP2 S456A, O00308 | -0.066 ± 0.048
27 | NEDD4-like E3 ubiquitin-protein ligase WWP2 S456C, O00308 | -0.01 ± 0.063
28 | NEDD4-like E3 ubiquitin-protein ligase WWP2 S456D, O00308 | 0.085 ± 0.071
29 | NEDD4-like E3 ubiquitin-protein ligase WWP2 S456E, O00308 | 0.017 ± 0.035
30 | NEDD4-like E3 ubiquitin-protein ligase WWP2 S456F, O00308 | -0.24 ± 0.063
31 | NEDD4-like E3 ubiquitin-protein ligase WWP2 S456G, O00308 | -0.043 ± 0.046
32 | NEDD4-like E3 ubiquitin-protein ligase WWP2 S456H, O00308 | 0.346 ± 0.096
33 | NEDD4-like E3 ubiquitin-protein ligase WWP2 S456K, O00308 | -0.039 ± 0.054
34 | NEDD4-like E3 ubiquitin-protein ligase WWP2 S456L, O00308 | -0.169 ± 0.05
35 | NEDD4-like E3 ubiquitin-protein ligase WWP2 S456M, O00308 | -0.06 ± 0.065
36 | NEDD4-like E3 ubiquitin-protein ligase WWP2 S456N, O00308 | 0.04 ± 0.074
37 | NEDD4-like E3 ubiquitin-protein ligase WWP2 S456P, O00308 | -0.062 ± 0.062
38 | NEDD4-like E3 ubiquitin-protein ligase WWP2 S456Q, O00308 | -0.11 ± 0.066
39 | NEDD4-like E3 ubiquitin-protein ligase WWP2 S456R, O00308 | -0.142 ± 0.041
40 | NEDD4-like E3 ubiquitin-protein ligase WWP2 S456T, O00308 | -0.04 ± 0.06
41 | NEDD4-like E3 ubiquitin-protein ligase WWP2 S456V, O00308 | -0.208 ± 0.059
42 | NEDD4-like E3 ubiquitin-protein ligase WWP2 S456W, O00308 | -0.192 ± 0.047
43 | NEDD4-like E3 ubiquitin-protein ligase WWP2 S456Y, O00308 | -0.589 ± 0.12
44 | NEDD4-like E3 ubiquitin-protein ligase WWP2 S481A, O00308 | 0 ± 0.061

Row | Substance | abundance fitness
45 | NEDD4-like E3 ubiquitin-protein ligase WWP2 S481C, O00308 | -0.054 ± 0.061
46 | NEDD4-like E3 ubiquitin-protein ligase WWP2 S481D, O00308 | 0.01 ± 0.037
47 | NEDD4-like E3 ubiquitin-protein ligase WWP2 S481E, O00308 | 0.022 ± 0.071
48 | NEDD4-like E3 ubiquitin-protein ligase WWP2 S481F, O00308 | -0.039 ± 0.062
49 | NEDD4-like E3 ubiquitin-protein ligase WWP2 S481G, O00308 | -0.032 ± 0.047
50 | NEDD4-like E3 ubiquitin-protein ligase WWP2 S481H, O00308 | -0.17 ± 0.08
51 | NEDD4-like E3 ubiquitin-protein ligase WWP2 S481I, O00308 | -0.047 ± 0.067
52 | NEDD4-like E3 ubiquitin-protein ligase WWP2 S481K, O00308 | -0.072 ± 0.049
53 | NEDD4-like E3 ubiquitin-protein ligase WWP2 S481L, O00308 | -0.081 ± 0.053
54 | NEDD4-like E3 ubiquitin-protein ligase WWP2 S481N, O00308 | -0.062 ± 0.054
55 | NEDD4-like E3 ubiquitin-protein ligase WWP2 S481P, O00308 | 0.003 ± 0.049
56 | NEDD4-like E3 ubiquitin-protein ligase WWP2 S481Q, O00308 | -0.014 ± 0.039
57 | NEDD4-like E3 ubiquitin-protein ligase WWP2 S481R, O00308 | -0.042 ± 0.034
58 | NEDD4-like E3 ubiquitin-protein ligase WWP2 S481T, O00308 | 0.029 ± 0.047
59 | NEDD4-like E3 ubiquitin-protein ligase WWP2 S481V, O00308 | -0.151 ± 0.056
60 | NEDD4-like E3 ubiquitin-protein ligase WWP2 S481W, O00308 | -0.09 ± 0.035
61 | NEDD4-like E3 ubiquitin-protein ligase WWP2 S481Y, O00308 | -0.102 ± 0.063
62 | NEDD4-like E3 ubiquitin-protein ligase WWP2 S487A, O00308 | -0.034 ± 0.055
63 | NEDD4-like E3 ubiquitin-protein ligase WWP2 S487C, O00308 | -0.032 ± 0.04
64 | NEDD4-like E3 ubiquitin-protein ligase WWP2 S487D, O00308 | 0.013 ± 0.036
65 | NEDD4-like E3 ubiquitin-protein ligase WWP2 S487E, O00308 | 0.025 ± 0.034
66 | NEDD4-like E3 ubiquitin-protein ligase WWP2 S487F, O00308 | -0.112 ± 0.057

Row | Substance | abundance fitness
67 | NEDD4-like E3 ubiquitin-protein ligase WWP2 S487G, O00308 | -0.03 ± 0.034
68 | NEDD4-like E3 ubiquitin-protein ligase WWP2 S487H, O00308 | 0.111 ± 0.073
69 | NEDD4-like E3 ubiquitin-protein ligase WWP2 S487I, O00308 | -0.038 ± 0.074
70 | NEDD4-like E3 ubiquitin-protein ligase WWP2 S487K, O00308 | 0.016 ± 0.038
71 | NEDD4-like E3 ubiquitin-protein ligase WWP2 S487L, O00308 | -0.067 ± 0.04
72 | NEDD4-like E3 ubiquitin-protein ligase WWP2 S487M, O00308 | -0.024 ± 0.057
73 | NEDD4-like E3 ubiquitin-protein ligase WWP2 S487N, O00308 | -0.034 ± 0.04
74 | NEDD4-like E3 ubiquitin-protein ligase WWP2 S487Q, O00308 | -0.024 ± 0.061
75 | NEDD4-like E3 ubiquitin-protein ligase WWP2 S487R, O00308 | -0.006 ± 0.034
76 | NEDD4-like E3 ubiquitin-protein ligase WWP2 S487T, O00308 | 0.058 ± 0.059
77 | NEDD4-like E3 ubiquitin-protein ligase WWP2 S487V, O00308 | -0.034 ± 0.035
78 | NEDD4-like E3 ubiquitin-protein ligase WWP2 S487W, O00308 | -0.149 ± 0.05
79 | NEDD4-like E3 ubiquitin-protein ligase WWP2 T455A, O00308 | -0.659 ± 0.061
80 | NEDD4-like E3 ubiquitin-protein ligase WWP2 T455C, O00308 | -0.339 ± 0.068
81 | NEDD4-like E3 ubiquitin-protein ligase WWP2 T455E, O00308 | -0.563 ± 0.18
82 | NEDD4-like E3 ubiquitin-protein ligase WWP2 T455F, O00308 | -0.912 ± 0.14
83 | NEDD4-like E3 ubiquitin-protein ligase WWP2 T455G, O00308 | -0.379 ± 0.045
84 | NEDD4-like E3 ubiquitin-protein ligase WWP2 T455I, O00308 | -0.529 ± 0.08
85 | NEDD4-like E3 ubiquitin-protein ligase WWP2 T455K, O00308 | -0.628 ± 0.082
86 | NEDD4-like E3 ubiquitin-protein ligase WWP2 T455L, O00308 | -0.258 ± 0.048
87 | NEDD4-like E3 ubiquitin-protein ligase WWP2 T455M, O00308 | -0.415 ± 0.066
88 | NEDD4-like E3 ubiquitin-protein ligase WWP2 T455N, O00308 | -0.147 ± 0.073
